From publication PMC4439613, “TRIP13 is a protein-remodeling AAA+ ATPase that catalyzes MAD2 conformation switching” (eLife, 2015)

Assays:
[1] = target: C. elegans MAD-2 (MDF-2) (C. elegans); assay: SEC-MALS; single purified proteins on Superdex 200 10/300 GL; PCH-2 and TRIP13 with and without added nucleotides
[2] = target: the molecule itself; assay: as above
[3] = substrate: Nc1ncnc2c1ncn2[C@@H]1O[C@H](COP(=O)(O)OP(=O)(O)OP(=O)(O)O)[C@@H](O)[C@H]1O; assay: enzyme-coupled ATPase assay (pyruvate kinase / lactate dehydrogenase, NADH); format: biochemical, Caenorhabditis elegans; settings: basal, pH 8.5, 27 °C, 10 mM MgCl2, 200 mM NaCl, kcat per hexamer
[4] = target: the molecule itself; assay: SEC; PCH-2 pore loop mutants compared with wild type on a size-exclusion column
[5] = substrate: Nc1ncnc2c1ncn2[C@@H]1O[C@H](COP(=O)(O)OP(=O)(O)OP(=O)(O)O)[C@@H](O)[C@H]1O; assay: enzyme-coupled ATPase assay (pyruvate kinase / lactate dehydrogenase, NADH); format: biochemical, Caenorhabditis elegans; settings: basal, pH 8.5, 27 °C, 10 mM MgCl2, 200 mM NaCl, kcat per hexamer; remark: listed apart in the source
Source text: enzyme-coupled ATPase assay (pyruvate kinase / lactate dehydrogenase, NADH) on PCH-2 | the kcat of PCH-2^W221A around threefold higher than that of the wild-type enzyme

In the case of “C. elegans MAD-2 (MDF-2) (natural protein)”, the stoichiometry N [1] is reported as 2.

B1: Caenorhabditis elegans PCH-2 (enzyme, C. elegans, UniProt Q09535 1-424, looked up)
chain: MHEPMKTLKNIHAEIRICQKFPKSTVQKRFSEFEELIKAASKNARNWKPISSVELFQGDSSLNELFEKLVIGTCELRDGELFENVNDLTINPSNIHVYKLHKDGPLSQNIGDDDGDESIIGSQLWQLPCVEFDSIWENLIYDSNLKNEVMSYVAALARLSEKHVNTKIINVNRLILLTGPPGTGKTSLCKGLAQHLSIRMNDKYSKSVMLEINSHSLFSKWFSESGKLVQKMFDQIDELAEDEKCMVFVLIDEVESLGMCRESSSSRSEPSDAIRAVNALLTQIDRIRRRDNVLILCTSNLESTLDKALVDRADIVKNVGQPSDFARYSMLKSSIMELARIGVVIDNEVHTDYWPQDICDTKAPRNEFTEILFKIAQEARGLSGRAISMLPTLVYSKSPEETITLPNCMNLFLEAVKERLSRNN
notes: PCH-2 (TRIP13 ortholog), C. elegans, full length, 424 residues; Selenomethionine-derivatised protein was used for phasing only; two subunits of the hexamer carry ADP in the crystal; also called C. elegans TRIP13 ortholog; wild-type PCH-2; source: E. coli Rosetta 2 (DE3) pLysS, purified (Ni-NTA, Hitrap Q ion exchange, Superdex 200 SEC); not shown: His6, N-terminal, cleaved
In the case of B1, the “stoichiometry N” value [2] is reported as 6, the Km [3] is reported as 9.5 ± 1.3 µM and the kcat [3] is reported as 56.0 +/- 1.5 ATP min^-1.

B2: C. elegans PCH-2 'pore loop AG' mutant (enzyme, UniProt Q09535 1-424, looked up)
chain: MHEPMKTLKNIHAEIRICQKFPKSTVQKRFSEFEELIKAASKNARNWKPISSVELFQGDSSLNELFEKLVIGTCELRDGELFENVNDLTINPSNIHVYKLHKDGPLSQNIGDDDGDESIIGSQLWQLPCVEFDSIWENLIYDSNLKNEVMSYVAALARLSEKHVNTKIINVNRLILLTGPPGTGKTSLCKGLAQHLSIRMNDKYSKSVMLEINSHSLAGAAGAAAGALVQKMFDQIDELAEDEKCMVFVLIDEVESLGMCRESSSSRSEPSDAIRAVNALLTQIDRIRRRDNVLILCTSNLESTLDKALVDRADIVKNVGQPSDFARYSMLKSSIMELARIGVVIDNEVHTDYWPQDICDTKAPRNEFTEILFKIAQEARGLSGRAISMLPTLVYSKSPEETITLPNCMNLFLEAVKERLSRNN
notes: also called PCH-2^AG; source: E. coli Rosetta 2 (DE3) pLysS, purified (Ni-NTA, Hitrap Q ion exchange, Superdex 200 SEC); not shown: His6, N-terminal, cleaved
In the case of B2, the “stoichiometry N” value [4] is reported as 6, the Km [3] is reported as 20.2 ± 1.6 µM and the kcat [3] is reported as 85.4 +/- 1.2 ATP min^-1.

B3: C. elegans PCH-2^F222A (enzyme, UniProt Q09535 1-424, looked up)
chain: MHEPMKTLKNIHAEIRICQKFPKSTVQKRFSEFEELIKAASKNARNWKPISSVELFQGDSSLNELFEKLVIGTCELRDGELFENVNDLTINPSNIHVYKLHKDGPLSQNIGDDDGDESIIGSQLWQLPCVEFDSIWENLIYDSNLKNEVMSYVAALARLSEKHVNTKIINVNRLILLTGPPGTGKTSLCKGLAQHLSIRMNDKYSKSVMLEINSHSLFSKWASESGKLVQKMFDQIDELAEDEKCMVFVLIDEVESLGMCRESSSSRSEPSDAIRAVNALLTQIDRIRRRDNVLILCTSNLESTLDKALVDRADIVKNVGQPSDFARYSMLKSSIMELARIGVVIDNEVHTDYWPQDICDTKAPRNEFTEILFKIAQEARGLSGRAISMLPTLVYSKSPEETITLPNCMNLFLEAVKERLSRNN
notes: PCH-2, C. elegans, full length, pore loop mutation F222A; also called pore loop mutant F222A; source: E. coli Rosetta 2 (DE3) pLysS, purified (Ni-NTA, Hitrap Q ion exchange, Superdex 200 SEC); not shown: His6, N-terminal, cleaved
For B3, the “stoichiometry N” value [4] was 6, the Km [3] was 19.3 ± 0.8 µM and the kcat [3] was 11.7 +/- 0.1 ATP min^-1.

B4: C. elegans PCH-2^W221A (enzyme, UniProt Q09535 1-424, looked up)
chain: MHEPMKTLKNIHAEIRICQKFPKSTVQKRFSEFEELIKAASKNARNWKPISSVELFQGDSSLNELFEKLVIGTCELRDGELFENVNDLTINPSNIHVYKLHKDGPLSQNIGDDDGDESIIGSQLWQLPCVEFDSIWENLIYDSNLKNEVMSYVAALARLSEKHVNTKIINVNRLILLTGPPGTGKTSLCKGLAQHLSIRMNDKYSKSVMLEINSHSLFSKAFSESGKLVQKMFDQIDELAEDEKCMVFVLIDEVESLGMCRESSSSRSEPSDAIRAVNALLTQIDRIRRRDNVLILCTSNLESTLDKALVDRADIVKNVGQPSDFARYSMLKSSIMELARIGVVIDNEVHTDYWPQDICDTKAPRNEFTEILFKIAQEARGLSGRAISMLPTLVYSKSPEETITLPNCMNLFLEAVKERLSRNN
notes: PCH-2, C. elegans, full length, pore loop mutation W221A; also called pore loop mutant W221A; source: E. coli Rosetta 2 (DE3) pLysS, purified (Ni-NTA, Hitrap Q ion exchange, Superdex 200 SEC); not shown: His6, N-terminal, cleaved
With B4 the “stoichiometry N” value [4] was 6, the Km [5] was 28.3 ± 1.9 µM and the kcat [5] was 168.7 +/- 2.3 ATP min^-1.
